System: CN1CCC[C@H]1c1cccnc1
Test: cells, lysate or membranes named
Details: other: nicotine demethylase reaction, yeast microsomes, 25° C., pH 7.1, mean±standard error

Substance: NtabCYP82E5v2 (Nicotiana tabacum)
- Km: 5.6 ± 1.4 µM
- Vmax: 0.7±0.02 nmol min^−1 mg^−1 protein

— patent publication US11293031B2
